Source: publication PMC6503924

Target: Todarodes pacificus hemocyanin (Todarodes pacificus)
Test: cryo-EM structure; single-particle cryo-EM of purified hemocyanin, 2.9 mg/ml, 100 mM HEPES pH 7.5, 200 mM CaCl2; asymmetric refinement (no symmetry imposed), overall 5.1 Å; model by rigid-body fitting

- stoichiometry N: 10
Substance: Todarodes pacificus hemocyanin (natural protein)
